# Test results from paper doi:10.1101/2024.11.01.621267 (bioRxiv, 2024).
# B1: HsLARP4 peptide 587–637 (peptide)
# peptide: TTKPSRASTASPCNNNINAATAVALQEPRKLSYAEVCQKPPKEPSSVLVQP
# notes: La-related protein 4 (LARP4), human, residues 587-637; source: synthetic peptide (GenScript)
# B2: HsLARP4 peptide 615–625 (peptide)
# peptide: RKLSYAEVCQK
# notes: La-related protein 4 (LARP4), human, residues 615-625 (within CR2); source: synthetic peptide (GenScript)
# B3: HsLARP4 peptide 612–625 (peptide)
# peptide: QEPRKLSYAEVCQK
# notes: La-related protein 4 (LARP4), human, residues 612-625; source: synthetic peptide (GenScript)
# B4: HsLARP4 peptide 575–625 (peptide)
# peptide: LNQTTIPVSPPSTTKPSRASTASPCNNNINAATAVALQEPRKLSYAEVCQK
# notes: La-related protein 4 (LARP4), human, residues 575-625; source: synthetic peptide (GenScript)
# Target: recombinant full-length RACK1 protein (ITC) (human, UniProt P63244 1-317)
# Assay: ITC; LARP4 peptide (400 μM; 300 μM for 600–625) injected into RACK1 (40 μM; 30 μM) in the cell; iTC200; 298K; 20 mM HEPES, 300 mM NaCl, 10% glycerol, 1 mM DTT pH 7.5; triplicate
# Details: both partners purified
Ka [M⁻¹],Kd [nM],dH [kcal/mol],stoichiometry N,Binder
440000,2300,-7.8,1,B1
–,3000,-8.1,0.9,B2
–,2000,-8.3,0.8,B3
370000,2700,-5.7,1,B4
